Experimental data taken from FireProtDB (doi:10.1093/protein/gzw068).

B1: E58Q, Q93D82 (parent)
chain: MSTAIVTNVKHFGGMGSALRLSEAGHTVACHDESFKQKDELEAFAETYPQLKPMSEQEPAELIEAVTSAYGQVDVLVSNDIFAPEFQPIDKYAVEDYRGAVEALQIRPFALVNAVASQMKKRKSGHIIFITSATPFGPWKELSTYTSARAGACTLANALSKELGEYNIPVFAIGPNYLHSEDSPYFYPTEPWKTNPEHVAHVKKVTALQRLGTQKELGELVAFLASGSCDYLTGQVFWLAGGFPMIERWPGMPE

Variants of: B1
Details: Rhizobium radiobacter; pH 7.7; Thermal; CD; Phosphate 5mM; structure 1PWX; whole UniProt chain shown

Variant | Tm | change of melting temperature, mutant - wild type (higher = more stable)
MSTAIVTNVKHFGGMGSALRLSEAGHTVACHDESFKQKDELEAFAETYPQLKPMSEQQPAELIEAVTSAYGQVDVLVSNDIFAPEFQPIDKYAVEDYRGAVEALQIRPFALVNAVASQMKKRKSGHIIFITSATPFGPWKELSTYTSARAGACTLANALSKELGEYNIPVFAIGPNYLHSEDSPYFYPTEPWKTNPEHVAHVKKVTALQRLGTQKELGELVAFLASGSCDYLTGQVFWLAGGFPMIERWPGMPE [E58Q] | 67.5 °C | 2.5 °C
MSTAIVTNVKHFGGMGSALRLSEAGHTVACHDESFKQKDELEAFAETYPQLKPMSEQEPAELIEAVTSAYGQVDVLVSNDIFAPEFQPIDKYAVEDYRGAVEALQIRPFALVNAVASQMKKRKSGHIIFITSATPFGPWKELSTYTSARAGACTLANALSKELGEYNIPVFAIGPNYLHSEDSPYFYPTTPWKTNPEHVAHVKKVTALQRLGTQKELGELVAFLASGSCDYLTGQVFWLAGGFPMIERWPGMPE [E190T] | 66.5 °C | 1.5 °C
MSTAIVTNVKHFGGMGSALRLSEAGHTVACHDESFKQKDELEAFAETYPQLKPMSEQEPAELIEAVTSAYGQVDVLVSNDIFAPEFQPIDKYAVEHYRGAVEALQIRPFALVNAVASQMKKRKSGHIIFITSATPFGPWKELSTYTSARAGACTLANALSKELGEYNIPVFAIGPNYLHSEDSPYFYPTEPWKTNPEHVAHVKKVTALQRLGTQKELGELVAFLASGSCDYLTGQVFWLAGGFPMIERWPGMPE [D96H] | 56 °C | -9 °C
MSTAIVTNVKHFGGMGSALRLSEAGHTVACHDESFKQKDELEAFAETYPQLKPMSEQEPAELIEAVTSAYGQVDVLVSNDIFAPEFQPIDKYAVEDYRGAVEALQIRPFALVNAVASQMKKRKSGHIIFITSATPFGPWKELSTYTSARAGACTLAWALSKELGEYNIPVFAIGPNYLHSEDSPYFYPTEPWKTNPEHVAHVKKVTALQRLGTQKELGELVAFLASGSCDYLTGQVFWLAGGFPMIERWPGMPE [N157W] | 56 °C | -9 °C
MSTAIVTNVKHFGGMGSALRLSEAGHTVACHDESFKQKDELEAFAETYPQLKPMSEQEPAELIEAVTSAYGQVDVLVSNDIFAPEFQPIDKYAVEDYRGAVEALQIRPFALVNAVASQMKKRKSGHIIFITSATPFGPWKELSTYTSARAGACTLARALSKELGEYNIPVFAIGPNYLHSEDSPYFYPTEPWKTNPEHVAHVKKVTALQRLGTQKELGELVAFLASGSCDYLTGQVFWLAGGFPMIERWPGMPE [N157R] | 60 °C | -5 °C
MSTAIVTNVKHFGGMGSALRLSEAGHTVACHDESFKQKDELEAFAETYPQLKPMSEQEPAELIEAVTSAYGQVDVLVSNDIFAPEFQPIDKYAVEDYRGAVEALQIRPFALVNAVASQMKKRKSGHIIFITSATPFGPWKQLSTYTSARAGACTLANALSKELGEYNIPVFAIGPNYLHSEDSPYFYPTEPWKTNPEHVAHVKKVTALQRLGTQKELGELVAFLASGSCDYLTGQVFWLAGGFPMIERWPGMPE [E141Q] | 56 °C | -9 °C
MSTAIVTNVKHFGGMGSALRLSEAGHTVACHDESFKQKDELEAFAETYPQLKPMSEQEPAELIEAVTSAYGQVDVLVSNDIFAPEFQPIDKYAVEDYRGAVEALQIRPFALVNAVASQMKKRHSGHIIFITSATPFGPWKELSTYTSARAGACTLANALSKELGEYNIPVFAIGPNYLHSEDSPYFYPTEPWKTNPEHVAHVKKVTALQRLGTQKELGELVAFLASGSCDYLTGQVFWLAGGFPMIERWPGMPE [K123H] | 65.5 °C | 0.5 °C
MSTAIVTNVKHFGGMGSALRLSEAGHTVACHDESFKQKDELEAFAETYPQLKPMSEQEPAELIEAVTSAYGQVDVLVSNDIFAPEFQPIDKYAVEDYRRAVEALQIRPFALVNAVASQMKKRKSGHIIFITSATPFGPWKELSTYTSARAGACTLANALSKELGEYNIPVFAIGPNYLHSEDSPYFYPTEPWKTNPEHVAHVKKVTALQRLGTQKELGELVAFLASGSCDYLTGQVFWLAGGFPMIERWPGMPE [G99R] | 55.5 °C | -9.5 °C
MSTAIVTNVKHFGGMGSALRLSEAGHTVACHDESFKQKDELEAFAETYPQLKPMSEQEPAELIEAVTSAYGQVDVLVSNDIFAPEFQPIDKYALEDYRGAVEALQIRPFALVNAVASQMKKRKSGHIIFITSATPFGPWKELSTYTSARAGACTLANALSKELGEYNIPVFAIGPNYLHSEDSPYFYPTEPWKTNPEHVAHVKKVTALQRLGTQKELGELVAFLASGSCDYLTGQVFWLAGGFPMIERWPGMPE [V94L] | 63.5 °C | -1.5 °C
MSTAIVTNVKHFGGMGSALRLSEAGHTVACHDESFKQKDELEAFAETYPQLKPMSEQEPAELIEAVTSAYGQVDVLVSNDIFAPEFQPIDKYAVEDYRGAVEALQIRPFALVNAVASQMKKRKSGHIIFITSATPFGPWKELSTYTSARAGACTLANALSKELGEYNIPVFAIGPNYLHSEDSPYFYPTEPWKTNPEHVAHVKKVTALQRLGTQKELGELVAFLASGSCNYLTGQVFWLAGGFPMIERWPGMPE [D230N] | 62 °C | -3 °C
MSTAIVTNVKHFGGMGSALRLSEAGHTVACHDESFKQKDELEAFAETYPQLKPMSAQEPAELIEAVTSAYGQVDVLVSNDIFAPEFQPIDKYAVEDYRGAVEALQIRPFALVNAVASQMKKRKSGHIIFITSATPFGPWKELSTYTSARAGACTLANALSKELGEYNIPVFAIGPNYLHSEDSPYFYPTEPWKTNPEHVAHVKKVTALQRLGTQKELGELVAFLASGSCDYLTGQVFWLAGGFPMIERWPGMPE [E56A] | 65 °C | 0 °C
MSTAIVTNVKHFGGMGSALRLSEAGHTVACHDESFKQKDELEAFAETYPQLKPMSEQEPAELIEAVTSAYGQVDVLVSNDIFAPEFQPIDKYAVEDYRGAVEALQIRPFALVNAVASQMKKRKSGHIIFITSATPFGPWKELSTYTSARAGACTLANALSKELGAYNIPVFAIGPNYLHSEDSPYFYPTEPWKTNPEHVAHVKKVTALQRLGTQKELGELVAFLASGSCDYLTGQVFWLAGGFPMIERWPGMPE [E165A] | 65.5 °C | 0.5 °C
MSTAIVTNVKHFGGMGSALRLSEAGHTVACHDESFKQKDELEAFAETYPQLKPMSEQEPAELIEAVTQAYGQVDVLVSNDIFAPEFQPIDKYAVEDYRGAVEALQIRPFALVNAVASQMKKRKSGHIIFITSATPFGPWKELSTYTSARAGACTLANALSKELGEYNIPVFAIGPNYLHSEDSPYFYPTEPWKTNPEHVAHVKKVTALQRLGTQKELGELVAFLASGSCDYLTGQVFWLAGGFPMIERWPGMPE [S68Q] | 63 °C | -2 °C
MSTAIVTNVKHFGGMGSALRLSEAGHTVACHDESFKQKDELEAFAETYPQLKPMSEQEPAELIEAVTSAYGQVDVLVSNDIFAPEFQPIDKYAVEDYRGAVEALQIRPFALVNAVASQMKKRKSGHIIFITSATPFGPWKELVTYTSARAGACTLANALSKELGEYNIPVFAIGPNYLHSEDSPYFYPTEPWKTNPEHVAHVKKVTALQRLGTQKELGELVAFLASGSCDYLTGQVFWLAGGFPMIERWPGMPE [S143V] | 59.5 °C | -5.5 °C
MSTAIVTNVKHFGGMGSALRLSEAGHTVACHDPSFKQKDELEAFAETYPQLKPMSEQEPAELIEAVTSAYGQVDVLVSNDIFAPEFQPIDKYAVEDYRGAVEALQIRPFALVNAVASQMKKRKSGHIIFITSATPFGPWKELSTYTSARAGACTLANALSKELGEYNIPVFAIGPNYLHSEDSPYFYPTEPWKTNPEHVAHVKKVTALQRLGTQKELGELVAFLASGSCDYLTGQVFWLAGGFPMIERWPGMPE [E33P] | 64.5 °C | -0.5 °C
MSTAIVTNVKHFGGMGSALRLSEAGHTVACHDESFKQKDELEAFAETYPQLKPMSEQEPAELIEAVTSAYGQVDVLVSNDIFAPEFQPIDKYAVEDYRGAVEALQIRPFALVNAVASQMKKRKSGHIIFITSAIPFGPWKELSTYTSARAGACTLANALSKELGEYNIPVFAIGPNYLHSEDSPYFYPTEPWKTNPEHVAHVKKVTALQRLGTQKELGELVAFLASGSCDYLTGQVFWLAGGFPMIERWPGMPE [T134I] | 63.5 °C | -1.5 °C
MSTAIVTNVKHFGGMGSALRLSEAGHTVACHDESFKQKDELEAFAETYPQLKPMSEQEPAELIEAVTSAFGQVDVLVSNDIFAPEFQPIDKYAVEDYRGAVEALQIRPFALVNAVASQMKKRKSGHIIFITSATPFGPWKELSTYTSARAGACTLANALSKELGEYNIPVFAIGPNYLHSEDSPYFYPTEPWKTNPEHVAHVKKVTALQRLGTQKELGELVAFLASGSCDYLTGQVFWLAGGFPMIERWPGMPE [Y70F] | 65.5 °C | 0.5 °C
MSTAIVTNVKHFGGMGSALRLSEAGHTVACHDESFKQKDELEAFAETYPQLKPMSEQEPAELIEAVTSAYGQVDVLVSNDIFAPEFQPIDKYAVEDYRGAVEALQIRPFALVNAVASQMKKRKSGHIIFITSATPFGPWKELSTYTSARAGACTLANALSKELGEYNIPVFAIGPNYLHSEDSPYFYPTEPWKTNPEHVAHVKKVTALQRLGTQKELGELVAFLASGRCDYLTGQVFWLAGGFPMIERWPGMPE [S228R] | 64.5 °C | -0.5 °C
MSTAIVTNVKHFGGMGSALRLSEAGHTVACHDESFKQKDELEAFAETYPQLKPMSEQEPAKLIEAVTSAYGQVDVLVSNDIFAPEFQPIDKYAVEDYRGAVEALQIRPFALVNAVASQMKKRKSGHIIFITSATPFGPWKELSTYTSARAGACTLANALSKELGEYNIPVFAIGPNYLHSEDSPYFYPTEPWKTNPEHVAHVKKVTALQRLGTQKELGELVAFLASGSCDYLTGQVFWLAGGFPMIERWPGMPE [E61K] | 68.5 °C | 3.5 °C
MSTAIVTNVKHFGGMGSALRLSEAGHTVACHDESFKQKDELEAFAETYPQLKPMSEQEPAELIEAVTSAYGQVDVLVSNDIFAPEFQPIDKYAVEDYRGAVEALQIRPFALVNAVASQMKKRKSGHIIFITSATPFGPWKELSTYTSARAGACTLANALSKELGEYNIPVFAIGPNYLHSEDSPYFYPTEPWKTNPEHVAHVKKVTALQRLGTQKELGELVAFLASGSADYLTGQVFWLAGGFPMIERWPGMPE [C229A] | 60.5 °C | -4.5 °C
MSTAIVTNVKHFGGMGSALRLSEAGHTVACHDESFKQKDELEAFAESYPQLKPMSEQEPAELIEAVTSAYGQVDVLVSNDIFAPEFQPIDKYAVEDYRGAVEALQIRPFALVNAVASQMKKRKSGHIIFITSATPFGPWKELSTYTSARAGACTLANALSKELGEYNIPVFAIGPNYLHSEDSPYFYPTEPWKTNPEHVAHVKKVTALQRLGTQKELGELVAFLASGSCDYLTGQVFWLAGGFPMIERWPGMPE [T47S] | 64.5 °C | -0.5 °C
MSTAIVTNVKHFGGMGSALRLSEAGHTVACHDESFKQKDELEAFAETYPQLKPMSEQEPAELIEAVTSAYGQVDVLVSNDIFAPEFQPIDKYAVEDYRGAVEALQIRPFALVNAVASQMKKRKSGHIIFITSATPFGPWKELSTYTSARAGACTLANALSKELGEYNIPVFAIGPNYLHSEDSPYFYPTEPWKTVPEHVAHVKKVTALQRLGTQKELGELVAFLASGSCDYLTGQVFWLAGGFPMIERWPGMPE [N195V] | 59 °C | -6 °C
MSTAIVTNVKHFGGMGSALRLSEAGHTVACHDESFKQKDELEAFAETYPQLKPMSEQEPAELIEAVTSAYGQVDVLVSNDIFAPEFQPIDQYAVEDYRGAVEALQIRPFALVNAVASQMKKRKSGHIIFITSATPFGPWKELSTYTSARAGACTLANALSKELGEYNIPVFAIGPNYLHSEDSPYFYPTEPWKTNPEHVAHVKKVTALQRLGTQKELGELVAFLASGSCDYLTGQVFWLAGGFPMIERWPGMPE [K91Q] | 61 °C | -4 °C
